T1: NifK (ß subunit) of the MoFe protein (Azotobacter vinelandii, UniProt P07329 1-523)
T1 construct: Nitrogenase molybdenum-iron protein beta chain (NifK, ß subunit), Azotobacter vinelandii; The ß chain of m1 and m2, written alone; also called ß-subunit/NifK; source: A. vinelandii strain M1 (derivative of RS1), purified as part of the MoFe protein (HisTrap HP, Q-Sepharose)
T1 sequence: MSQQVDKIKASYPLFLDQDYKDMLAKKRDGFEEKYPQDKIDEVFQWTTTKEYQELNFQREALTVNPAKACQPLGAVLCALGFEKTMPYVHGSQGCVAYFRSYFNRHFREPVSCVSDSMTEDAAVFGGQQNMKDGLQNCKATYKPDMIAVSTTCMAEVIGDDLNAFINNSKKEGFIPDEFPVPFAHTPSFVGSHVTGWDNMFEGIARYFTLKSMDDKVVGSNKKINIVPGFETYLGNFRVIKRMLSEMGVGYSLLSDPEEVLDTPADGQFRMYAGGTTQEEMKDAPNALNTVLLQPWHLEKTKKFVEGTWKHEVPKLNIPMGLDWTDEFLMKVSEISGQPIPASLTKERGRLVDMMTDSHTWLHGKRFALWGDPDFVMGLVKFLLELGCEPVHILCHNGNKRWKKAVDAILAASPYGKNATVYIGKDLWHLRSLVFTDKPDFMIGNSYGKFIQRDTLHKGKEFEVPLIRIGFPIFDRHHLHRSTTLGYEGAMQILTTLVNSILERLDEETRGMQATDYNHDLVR


Tests used:
[1] = target: Strep-inhibited α-C45A/L158C MoFe protein (Azotobacter vinelandii) (UniProt P07328); experiment: SEC; analytical gel filtration of MoFe protein pre-treated with 5 molar equivalents of L127Δ Fe protein
[2] = target: T1, NifK (ß subunit) of the MoFe protein; experiment: native gel or EMSA; anoxic native-PAGE of the MoFe protein alone; conditions: both partners purified

Molecule	percent of the broadened MoFe peak that is MoFe:Fe1 complex (multi-Gaussian peak analysis) [1] [%]	binding result [2]
L127Δ Fe protein (non-ATP-hydrolyzing NifH2 mutant) (enzyme)	68	–
NifD (α subunit) of the Strep-inhibited α-C45A/L158C MoFe protein (natural protein, Azotobacter vinelandii, C158 joined by thiol-maleimide Michael addition to the peptide maleimide-GGGWSHPQFEK | N-terminal maleimide, joined to C158 of the α subunit, Nitrogenase molybdenum-iron protein alpha chain (NifD, α subunit), Azotobacter vinelandii; The α chain of m2, written alone; in the sample only part of the α subunits carry the peptide; also called Strep-modified α subunit) GMSREEVESLIQEVLEVYPEKARKDRNKHLAVNDPAVTQSKKAIISNKKSQPGLMTIRGCAYAGSKGVVWGPIKDMIHISHGPVGCGQYSRAGRRNYYIGTTGVNAFVTMNFTSDFQEKDIVFGGDKKLAKLIDEVETLFPLNKGISVQSECPIGCIGDDIESVSKVKGAELSKTIVPVRCEGFRGVSQSLGHHIANDAVRDWVLGKRDEDTTFASTPYDVAIIGDYNIGGDAWSSRILLEEMGLRCVAQWSGDGSISEIELTPKVKLNLVHCYRSMNYISRHMEEKYGIPWMEYNFFGPTKTIESLRAIAAKFDESIQKKCEEVIAKYKPEWEAVVAKYRPRLEGKRVMLYIGGLRPRHVIGAYEDLGMEVVGTGYEFAHNDDYDRTMKEMGDSTLLYDDVTGYEFEEFVKRIKPDLIGSGIKEKFIFQKMGIPFREMHSWDYSGPYHGFDGFAIFARDMDMTLNNPCWKKLQAPWEASEGAEKVAASA peptide: GGGWSHPQFEK	–	binds

From publication PMC10207099, “Nitrogen Fixation and Hydrogen Evolution by Sterically Encumbered Mo-Nitrogenase” (JACS Au, 2023)
